Data taken from US20230235013A1 (MABSOLVE, published 2023).

B1: anti-CD20 human IgG1 L234H/L235K/G236R (antibody)
heavy: QVQLQQPGAELVKPGASVKMSCKASGYTFTSYNMHWVKQTPGRGLEWIGAIYPGNGDTSYNQKFKGKATLTADKSSSTAYMQLSSLTSEDSAVYYCARSTYYGGDWYFNVWGAGTTVTVSSASTKGPSVFPLAPSSKSTSGGTAALGCLVKDYFPEPVTVSWNSGALTSGVHTFPAVLQSSGLYSLSSVVTVPSSSLGTQTYICNVNHKPSNTKVDKKVEPKSCDKTHTCPPCPAPEHKRGPSVFLFPPKPKDTLMISRTPEVTCVVVDVSHEDPEVKFNWYVDGVEVHNAKTKPREEQYNSTYRVVSVLTVLHQDWLNGKEYKCKVSNKALPAPIEKTISKAKGQPREPQVYTLPPSRDELTKNQVSLTCLVKGFYPSDIAVEWESNGQPENNYKTTPPVLDSDGSFFLYSKLTVDKSRWQQGNVFSCSVMHEALHNHYTQKSLSLSPGK
light: QIVLSQSPAILSASPGEKVTMTCRASSSVSYIHWFQQKPGSSPKPWIYATSNLASGVPVRFSGSGSGTSYSLTISRVEAEDAATYYCQQWTSNPPTFGGGTKLEIKRTVAAPSVFIFPPSDEQLKSGTASVVCLLNNFYPREAKVQWKVDNALQSGNSQESVTEQDSKDSTYSLSSTLTLSKADYEKHKVYACEVTHQGLSSPVTKSFNRGEC
notes: also called 1-68; copies: 2 + 2
B2: anti-CD20 human IgG1 L234H/L235M/G236R (antibody)
heavy: QVQLQQPGAELVKPGASVKMSCKASGYTFTSYNMHWVKQTPGRGLEWIGAIYPGNGDTSYNQKFKGKATLTADKSSSTAYMQLSSLTSEDSAVYYCARSTYYGGDWYFNVWGAGTTVTVSSASTKGPSVFPLAPSSKSTSGGTAALGCLVKDYFPEPVTVSWNSGALTSGVHTFPAVLQSSGLYSLSSVVTVPSSSLGTQTYICNVNHKPSNTKVDKKVEPKSCDKTHTCPPCPAPEHMRGPSVFLFPPKPKDTLMISRTPEVTCVVVDVSHEDPEVKFNWYVDGVEVHNAKTKPREEQYNSTYRVVSVLTVLHQDWLNGKEYKCKVSNKALPAPIEKTISKAKGQPREPQVYTLPPSRDELTKNQVSLTCLVKGFYPSDIAVEWESNGQPENNYKTTPPVLDSDGSFFLYSKLTVDKSRWQQGNVFSCSVMHEALHNHYTQKSLSLSPGK
light: QIVLSQSPAILSASPGEKVTMTCRASSSVSYIHWFQQKPGSSPKPWIYATSNLASGVPVRFSGSGSGTSYSLTISRVEAEDAATYYCQQWTSNPPTFGGGTKLEIKRTVAAPSVFIFPPSDEQLKSGTASVVCLLNNFYPREAKVQWKVDNALQSGNSQESVTEQDSKDSTYSLSSTLTLSKADYEKHKVYACEVTHQGLSSPVTKSFNRGEC
notes: also called 1-70; copies: 2 + 2
B3: anti-CD20 human IgG1 L234H/L235R/G236R (antibody)
heavy: QVQLQQPGAELVKPGASVKMSCKASGYTFTSYNMHWVKQTPGRGLEWIGAIYPGNGDTSYNQKFKGKATLTADKSSSTAYMQLSSLTSEDSAVYYCARSTYYGGDWYFNVWGAGTTVTVSSASTKGPSVFPLAPSSKSTSGGTAALGCLVKDYFPEPVTVSWNSGALTSGVHTFPAVLQSSGLYSLSSVVTVPSSSLGTQTYICNVNHKPSNTKVDKKVEPKSCDKTHTCPPCPAPEHRRGPSVFLFPPKPKDTLMISRTPEVTCVVVDVSHEDPEVKFNWYVDGVEVHNAKTKPREEQYNSTYRVVSVLTVLHQDWLNGKEYKCKVSNKALPAPIEKTISKAKGQPREPQVYTLPPSRDELTKNQVSLTCLVKGFYPSDIAVEWESNGQPENNYKTTPPVLDSDGSFFLYSKLTVDKSRWQQGNVFSCSVMHEALHNHYTQKSLSLSPGK
light: QIVLSQSPAILSASPGEKVTMTCRASSSVSYIHWFQQKPGSSPKPWIYATSNLASGVPVRFSGSGSGTSYSLTISRVEAEDAATYYCQQWTSNPPTFGGGTKLEIKRTVAAPSVFIFPPSDEQLKSGTASVVCLLNNFYPREAKVQWKVDNALQSGNSQESVTEQDSKDSTYSLSSTLTLSKADYEKHKVYACEVTHQGLSSPVTKSFNRGEC
notes: also called 1-73; copies: 2 + 2
B4: anti-CD20 human IgG1 L234H/L235N/G236R (antibody)
heavy: QVQLQQPGAELVKPGASVKMSCKASGYTFTSYNMHWVKQTPGRGLEWIGAIYPGNGDTSYNQKFKGKATLTADKSSSTAYMQLSSLTSEDSAVYYCARSTYYGGDWYFNVWGAGTTVTVSSASTKGPSVFPLAPSSKSTSGGTAALGCLVKDYFPEPVTVSWNSGALTSGVHTFPAVLQSSGLYSLSSVVTVPSSSLGTQTYICNVNHKPSNTKVDKKVEPKSCDKTHTCPPCPAPEHNRGPSVFLFPPKPKDTLMISRTPEVTCVVVDVSHEDPEVKFNWYVDGVEVHNAKTKPREEQYNSTYRVVSVLTVLHQDWLNGKEYKCKVSNKALPAPIEKTISKAKGQPREPQVYTLPPSRDELTKNQVSLTCLVKGFYPSDIAVEWESNGQPENNYKTTPPVLDSDGSFFLYSKLTVDKSRWQQGNVFSCSVMHEALHNHYTQKSLSLSPGK
light: QIVLSQSPAILSASPGEKVTMTCRASSSVSYIHWFQQKPGSSPKPWIYATSNLASGVPVRFSGSGSGTSYSLTISRVEAEDAATYYCQQWTSNPPTFGGGTKLEIKRTVAAPSVFIFPPSDEQLKSGTASVVCLLNNFYPREAKVQWKVDNALQSGNSQESVTEQDSKDSTYSLSSTLTLSKADYEKHKVYACEVTHQGLSSPVTKSFNRGEC
notes: also called 1-71; copies: 2 + 2
B5: anti-CD20 human IgG1 L234K/L235A/G236R (antibody)
heavy: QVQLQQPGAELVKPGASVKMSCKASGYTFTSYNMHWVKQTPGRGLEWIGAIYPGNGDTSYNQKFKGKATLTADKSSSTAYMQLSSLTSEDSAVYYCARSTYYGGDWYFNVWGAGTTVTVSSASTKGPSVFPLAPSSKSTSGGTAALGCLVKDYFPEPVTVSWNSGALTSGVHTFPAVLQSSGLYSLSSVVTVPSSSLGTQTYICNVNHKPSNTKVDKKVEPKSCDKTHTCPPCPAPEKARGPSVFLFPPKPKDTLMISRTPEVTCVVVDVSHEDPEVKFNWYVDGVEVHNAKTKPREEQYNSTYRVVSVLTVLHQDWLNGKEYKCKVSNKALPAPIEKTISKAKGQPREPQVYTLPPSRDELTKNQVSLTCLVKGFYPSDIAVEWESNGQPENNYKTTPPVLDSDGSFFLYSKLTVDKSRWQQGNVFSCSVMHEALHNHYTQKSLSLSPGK
light: QIVLSQSPAILSASPGEKVTMTCRASSSVSYIHWFQQKPGSSPKPWIYATSNLASGVPVRFSGSGSGTSYSLTISRVEAEDAATYYCQQWTSNPPTFGGGTKLEIKRTVAAPSVFIFPPSDEQLKSGTASVVCLLNNFYPREAKVQWKVDNALQSGNSQESVTEQDSKDSTYSLSSTLTLSKADYEKHKVYACEVTHQGLSSPVTKSFNRGEC
notes: also called 1-77; copies: 2 + 2
B6: anti-CD20 human IgG1 L234H/L235S/G236R (antibody)
heavy: QVQLQQPGAELVKPGASVKMSCKASGYTFTSYNMHWVKQTPGRGLEWIGAIYPGNGDTSYNQKFKGKATLTADKSSSTAYMQLSSLTSEDSAVYYCARSTYYGGDWYFNVWGAGTTVTVSSASTKGPSVFPLAPSSKSTSGGTAALGCLVKDYFPEPVTVSWNSGALTSGVHTFPAVLQSSGLYSLSSVVTVPSSSLGTQTYICNVNHKPSNTKVDKKVEPKSCDKTHTCPPCPAPEHSRGPSVFLFPPKPKDTLMISRTPEVTCVVVDVSHEDPEVKFNWYVDGVEVHNAKTKPREEQYNSTYRVVSVLTVLHQDWLNGKEYKCKVSNKALPAPIEKTISKAKGQPREPQVYTLPPSRDELTKNQVSLTCLVKGFYPSDIAVEWESNGQPENNYKTTPPVLDSDGSFFLYSKLTVDKSRWQQGNVFSCSVMHEALHNHYTQKSLSLSPGK
light: QIVLSQSPAILSASPGEKVTMTCRASSSVSYIHWFQQKPGSSPKPWIYATSNLASGVPVRFSGSGSGTSYSLTISRVEAEDAATYYCQQWTSNPPTFGGGTKLEIKRTVAAPSVFIFPPSDEQLKSGTASVVCLLNNFYPREAKVQWKVDNALQSGNSQESVTEQDSKDSTYSLSSTLTLSKADYEKHKVYACEVTHQGLSSPVTKSFNRGEC
notes: also called 1-74; 2-21; copies: 2 + 2
B7: anti-CD20 human IgG1 L234H/L235V/G236R (antibody)
heavy: QVQLQQPGAELVKPGASVKMSCKASGYTFTSYNMHWVKQTPGRGLEWIGAIYPGNGDTSYNQKFKGKATLTADKSSSTAYMQLSSLTSEDSAVYYCARSTYYGGDWYFNVWGAGTTVTVSSASTKGPSVFPLAPSSKSTSGGTAALGCLVKDYFPEPVTVSWNSGALTSGVHTFPAVLQSSGLYSLSSVVTVPSSSLGTQTYICNVNHKPSNTKVDKKVEPKSCDKTHTCPPCPAPEHVRGPSVFLFPPKPKDTLMISRTPEVTCVVVDVSHEDPEVKFNWYVDGVEVHNAKTKPREEQYNSTYRVVSVLTVLHQDWLNGKEYKCKVSNKALPAPIEKTISKAKGQPREPQVYTLPPSRDELTKNQVSLTCLVKGFYPSDIAVEWESNGQPENNYKTTPPVLDSDGSFFLYSKLTVDKSRWQQGNVFSCSVMHEALHNHYTQKSLSLSPGK
light: QIVLSQSPAILSASPGEKVTMTCRASSSVSYIHWFQQKPGSSPKPWIYATSNLASGVPVRFSGSGSGTSYSLTISRVEAEDAATYYCQQWTSNPPTFGGGTKLEIKRTVAAPSVFIFPPSDEQLKSGTASVVCLLNNFYPREAKVQWKVDNALQSGNSQESVTEQDSKDSTYSLSSTLTLSKADYEKHKVYACEVTHQGLSSPVTKSFNRGEC
notes: also called 1-76; copies: 2 + 2
B8: anti-CD20 human IgG1 L234H/L235Q/G236R (antibody)
heavy: QVQLQQPGAELVKPGASVKMSCKASGYTFTSYNMHWVKQTPGRGLEWIGAIYPGNGDTSYNQKFKGKATLTADKSSSTAYMQLSSLTSEDSAVYYCARSTYYGGDWYFNVWGAGTTVTVSSASTKGPSVFPLAPSSKSTSGGTAALGCLVKDYFPEPVTVSWNSGALTSGVHTFPAVLQSSGLYSLSSVVTVPSSSLGTQTYICNVNHKPSNTKVDKKVEPKSCDKTHTCPPCPAPEHQRGPSVFLFPPKPKDTLMISRTPEVTCVVVDVSHEDPEVKFNWYVDGVEVHNAKTKPREEQYNSTYRVVSVLTVLHQDWLNGKEYKCKVSNKALPAPIEKTISKAKGQPREPQVYTLPPSRDELTKNQVSLTCLVKGFYPSDIAVEWESNGQPENNYKTTPPVLDSDGSFFLYSKLTVDKSRWQQGNVFSCSVMHEALHNHYTQKSLSLSPGK
light: QIVLSQSPAILSASPGEKVTMTCRASSSVSYIHWFQQKPGSSPKPWIYATSNLASGVPVRFSGSGSGTSYSLTISRVEAEDAATYYCQQWTSNPPTFGGGTKLEIKRTVAAPSVFIFPPSDEQLKSGTASVVCLLNNFYPREAKVQWKVDNALQSGNSQESVTEQDSKDSTYSLSSTLTLSKADYEKHKVYACEVTHQGLSSPVTKSFNRGEC
notes: also called 1-72; copies: 2 + 2
B9: anti-CD20 human IgG1 L234H/L235T/G236R (antibody)
heavy: QVQLQQPGAELVKPGASVKMSCKASGYTFTSYNMHWVKQTPGRGLEWIGAIYPGNGDTSYNQKFKGKATLTADKSSSTAYMQLSSLTSEDSAVYYCARSTYYGGDWYFNVWGAGTTVTVSSASTKGPSVFPLAPSSKSTSGGTAALGCLVKDYFPEPVTVSWNSGALTSGVHTFPAVLQSSGLYSLSSVVTVPSSSLGTQTYICNVNHKPSNTKVDKKVEPKSCDKTHTCPPCPAPEHTRGPSVFLFPPKPKDTLMISRTPEVTCVVVDVSHEDPEVKFNWYVDGVEVHNAKTKPREEQYNSTYRVVSVLTVLHQDWLNGKEYKCKVSNKALPAPIEKTISKAKGQPREPQVYTLPPSRDELTKNQVSLTCLVKGFYPSDIAVEWESNGQPENNYKTTPPVLDSDGSFFLYSKLTVDKSRWQQGNVFSCSVMHEALHNHYTQKSLSLSPGK
light: QIVLSQSPAILSASPGEKVTMTCRASSSVSYIHWFQQKPGSSPKPWIYATSNLASGVPVRFSGSGSGTSYSLTISRVEAEDAATYYCQQWTSNPPTFGGGTKLEIKRTVAAPSVFIFPPSDEQLKSGTASVVCLLNNFYPREAKVQWKVDNALQSGNSQESVTEQDSKDSTYSLSSTLTLSKADYEKHKVYACEVTHQGLSSPVTKSFNRGEC
notes: also called 1-75; copies: 2 + 2
B10: anti-CD20 human IgG1 L234K/G236R (antibody)
heavy: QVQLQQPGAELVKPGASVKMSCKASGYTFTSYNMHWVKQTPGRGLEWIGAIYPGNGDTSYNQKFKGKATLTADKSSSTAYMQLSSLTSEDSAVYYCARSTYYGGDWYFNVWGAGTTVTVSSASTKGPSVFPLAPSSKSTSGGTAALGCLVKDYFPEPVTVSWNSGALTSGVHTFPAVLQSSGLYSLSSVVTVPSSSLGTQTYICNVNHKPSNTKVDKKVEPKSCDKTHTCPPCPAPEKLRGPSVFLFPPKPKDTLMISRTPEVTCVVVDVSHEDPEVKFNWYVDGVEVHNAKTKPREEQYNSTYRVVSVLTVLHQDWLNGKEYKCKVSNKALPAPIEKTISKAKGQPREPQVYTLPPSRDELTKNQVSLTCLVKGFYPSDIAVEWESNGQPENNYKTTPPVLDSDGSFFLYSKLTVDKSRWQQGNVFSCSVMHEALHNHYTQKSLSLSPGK
light: QIVLSQSPAILSASPGEKVTMTCRASSSVSYIHWFQQKPGSSPKPWIYATSNLASGVPVRFSGSGSGTSYSLTISRVEAEDAATYYCQQWTSNPPTFGGGTKLEIKRTVAAPSVFIFPPSDEQLKSGTASVVCLLNNFYPREAKVQWKVDNALQSGNSQESVTEQDSKDSTYSLSSTLTLSKADYEKHKVYACEVTHQGLSSPVTKSFNRGEC
notes: also called 1-84; copies: 2 + 2

These binders were tested against T1, Histidine-tagged recombinant human FcγRI (CD64) (human, UniProt P12314 16-288) (assay: SPR, culture supernatant, captured His-FcγRI;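 further: biacore T200 SPR at 25 °C, anti-His capture, supernatants of HEK293 cells expressing IgG1 Fc variants injected 1 min, reference-subtracted response read 55 s after injection start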).
T1 construct: bought; also called Sino Biological Cat. No. 12056-H08H
Description: Binding analysis was carried out by surface plasmon resonance at 25° C. using a Biacore® T200 instrument with Biacore® T200 control software. The running buffer (HBS-EP+) consisted of 0.01 M HEPES pH 7.4, containing 0.15 M NaCl, 3 mM EDTA, and 0.05% v/v Surfactant P20. The sample compartment was held at 4° C. during analysis.
The cell was activated by treatment with EDC/NHS for 7 min. The antibody was diluted to 5 μg/mL in 10 mM sodium acetate pH 4.5 and injected for 7 min at 5 μL/min. The flow cell was deactivated by injection of 1M ethanolamine for 7 min. This process was repeated in the absence of anti-his antibody on a separate flow cell to generate a reference surface. […] Samples of undiluted culture supernatants from HEK293 cells expressing human IgG1 antibodies comprising variant Fc regions were injected for 1 min at 30 μL/min and allowed to disassociate for 2 min. […] Therefore, regeneration between cycles was not necessary. Responses on the test flow cell (coupled with anti-His antibody) were analysed after subtraction of responses on the control flow cell (sham-coupled). The relative binding response was measured 55 sec after the beginning of sample injection. To account for any possible drift in response due to slow dissociation of the His-tagged FcγRI, the binding response was measured relative to a baseline interpolated between report points located before sample injection and at the end of dissociation.
The whole experiment was repeated three times. Due to the relatively crude nature of the samples (variable refractive index, presence of culture media and other cellular products), some sensorgrams were unsatisfactory and were eliminated from analysis. The mean and standard deviation of binding response was then calculated for each sample.

Which Mean binding response does the source give for B1 here?
The Mean binding response was 29.2 RU.

B2 was tested. Which Mean binding response did it give?
The Mean binding response was 31.3 RU.

With B3 as the binder, how does the Mean binding response read?
Its Mean binding response is 35.3 RU.

B4 was tested. Which Mean binding response did it give?
Its Mean binding response is 24.6 RU.

Which Mean binding response does the source give for B5 here?
Its Mean binding response is 23 RU.

For B6, which Mean binding response is on record?
Its Mean binding response is 10.9 RU.

B7 was tested. Which Mean binding response did it give?
Its Mean binding response is 25.6 RU.

How did the Mean binding response turn out when B8 was run?
Its Mean binding response is 33.3 RU.

With B9 as the binder, how does the Mean binding response read?
The Mean binding response was 44.9 RU.

For B10, which Mean binding response is on record?
Its Mean binding response is 31.2 RU.
